In PMC4989518, “In situ expression of (R)-carbonyl reductase rebalancing an asymmetric pathway improves stereoconversion efficiency of racemic mixture to (S)-phenyl-1,2-ethanediol in Candida parapsilosis CCTCC M203011” (Microbial Cell Factories, 2016):

Tested on: OC[C@H](O)c1ccccc1
Assay: purified protein
Conditions: oxidation to 2-HAP, NAD+, 100 mM acetate pH 6.5, 35 °C, enzyme from C. parapsilosis/pCP-rcr

Work on “recombinant RCR (C. parapsilosis/pCP-rcr) (Lodderomyces parapsilosis)” yielded a Km of 6.31 ± 0.09 mM, a kcat of 3.19 ± 0.22 s⁻¹ and a kcat/Km of 510 M⁻¹ s⁻¹.
